Results: publication PMC11199634 (Nature Communications, 2024)

Target: T1, SDS22 (tag-free, purified) (human, UniProt Q15435 1-360)
T1 construct: SDS22 (PPP1R7), human, wild type; also called SDS22-WT; untagged SDS22; source: HEK293T, transiently transfected; EGFP-SDS22 purified on EGFP-trap beads, tag-free after TEV protease
T1 sequence (looked up): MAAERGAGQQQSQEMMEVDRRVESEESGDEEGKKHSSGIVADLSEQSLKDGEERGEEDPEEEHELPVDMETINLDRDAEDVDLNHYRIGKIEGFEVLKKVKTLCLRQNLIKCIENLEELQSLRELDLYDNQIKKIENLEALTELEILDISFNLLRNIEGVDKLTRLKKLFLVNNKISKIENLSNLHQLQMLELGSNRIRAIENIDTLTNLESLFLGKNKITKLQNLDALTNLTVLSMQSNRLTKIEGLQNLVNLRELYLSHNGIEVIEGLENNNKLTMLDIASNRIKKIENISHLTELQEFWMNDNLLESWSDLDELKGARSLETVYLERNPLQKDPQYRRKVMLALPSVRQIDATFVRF
Experiment: ITC; 5 μM SDS22 in the cell titrated with 50 μM His-I3 (20 injections), 22 °C, MicroCal iTC200; binding curves not saturated
Conditions: both partners purified

Kd: 7.6 µM
B1: His-I3 (natural protein, human, UniProt O60927 1-126, looked up)
chain: MAEAGAGLSETVTETTVTVTTEPENRSLTIKLRKRKPEKKVEWTSDTVDNEHMGRRSSKCCCIYEKPRAFGESSTESDEEEEEGCGHTHCVRGHRKGRRRATLGPTPTTPPQPPDPSQPPPGPMQH
notes: source: E. coli BL21 (pET16b), purified (Ni2+-Sepharose)
